The results in this text go back to US20230038761, “REGULATION OF VON WILLEBRAND FACTOR (VWF)” (BAND THERAPEUTICS, LLC, published 2023).

By EC50 is commonly meant the midpoint of the concentration-response curve. A low value points to higher potency in that assay.

In series [1] the target is T1, von Willebrand factor (VWF) (Homo sapiens, UniProt P04275 SEQ:764-2813). As to the kind of experiment: ELISA with anti-PEG detection; dPBS, 37 C, 2 h. The procedure: (§1) The affinity of BT200, with or without pre-incubation with BT101, for purified human VWF was evaluated using an enzyme-linked immunosorbent assay (ELISA) method. In this study, purified human VWF protein was dissolved in Dulbecco's phosphate buffered saline (dPBS) buffer at a concentration of 10 μg/mL and 100 μL of this solution was added to each well of a Nunc Maxisorp 96-well plate. The plate was incubated overnight at 4° C. The following day, the plate was washed 3 times, followed by blocking with 5% bovine serum albumin (BSA) in dPBS at room temperature for 90 minutes. The blocked plate was then washed 3 times before adding either BT200 at concentrations of 0.3, 1, 3, 10, 30, 100, 300, 1000, 3000, and 10000 nM or a pre-incubated 1:1 molar ratio of BT101:BT200 at the same concentrations. BT101 and BT200 were mixed and incubated at 37° C. for 30 minutes prior to addition to the plate.
T1 sequence (P04275 764-2813 Q852R): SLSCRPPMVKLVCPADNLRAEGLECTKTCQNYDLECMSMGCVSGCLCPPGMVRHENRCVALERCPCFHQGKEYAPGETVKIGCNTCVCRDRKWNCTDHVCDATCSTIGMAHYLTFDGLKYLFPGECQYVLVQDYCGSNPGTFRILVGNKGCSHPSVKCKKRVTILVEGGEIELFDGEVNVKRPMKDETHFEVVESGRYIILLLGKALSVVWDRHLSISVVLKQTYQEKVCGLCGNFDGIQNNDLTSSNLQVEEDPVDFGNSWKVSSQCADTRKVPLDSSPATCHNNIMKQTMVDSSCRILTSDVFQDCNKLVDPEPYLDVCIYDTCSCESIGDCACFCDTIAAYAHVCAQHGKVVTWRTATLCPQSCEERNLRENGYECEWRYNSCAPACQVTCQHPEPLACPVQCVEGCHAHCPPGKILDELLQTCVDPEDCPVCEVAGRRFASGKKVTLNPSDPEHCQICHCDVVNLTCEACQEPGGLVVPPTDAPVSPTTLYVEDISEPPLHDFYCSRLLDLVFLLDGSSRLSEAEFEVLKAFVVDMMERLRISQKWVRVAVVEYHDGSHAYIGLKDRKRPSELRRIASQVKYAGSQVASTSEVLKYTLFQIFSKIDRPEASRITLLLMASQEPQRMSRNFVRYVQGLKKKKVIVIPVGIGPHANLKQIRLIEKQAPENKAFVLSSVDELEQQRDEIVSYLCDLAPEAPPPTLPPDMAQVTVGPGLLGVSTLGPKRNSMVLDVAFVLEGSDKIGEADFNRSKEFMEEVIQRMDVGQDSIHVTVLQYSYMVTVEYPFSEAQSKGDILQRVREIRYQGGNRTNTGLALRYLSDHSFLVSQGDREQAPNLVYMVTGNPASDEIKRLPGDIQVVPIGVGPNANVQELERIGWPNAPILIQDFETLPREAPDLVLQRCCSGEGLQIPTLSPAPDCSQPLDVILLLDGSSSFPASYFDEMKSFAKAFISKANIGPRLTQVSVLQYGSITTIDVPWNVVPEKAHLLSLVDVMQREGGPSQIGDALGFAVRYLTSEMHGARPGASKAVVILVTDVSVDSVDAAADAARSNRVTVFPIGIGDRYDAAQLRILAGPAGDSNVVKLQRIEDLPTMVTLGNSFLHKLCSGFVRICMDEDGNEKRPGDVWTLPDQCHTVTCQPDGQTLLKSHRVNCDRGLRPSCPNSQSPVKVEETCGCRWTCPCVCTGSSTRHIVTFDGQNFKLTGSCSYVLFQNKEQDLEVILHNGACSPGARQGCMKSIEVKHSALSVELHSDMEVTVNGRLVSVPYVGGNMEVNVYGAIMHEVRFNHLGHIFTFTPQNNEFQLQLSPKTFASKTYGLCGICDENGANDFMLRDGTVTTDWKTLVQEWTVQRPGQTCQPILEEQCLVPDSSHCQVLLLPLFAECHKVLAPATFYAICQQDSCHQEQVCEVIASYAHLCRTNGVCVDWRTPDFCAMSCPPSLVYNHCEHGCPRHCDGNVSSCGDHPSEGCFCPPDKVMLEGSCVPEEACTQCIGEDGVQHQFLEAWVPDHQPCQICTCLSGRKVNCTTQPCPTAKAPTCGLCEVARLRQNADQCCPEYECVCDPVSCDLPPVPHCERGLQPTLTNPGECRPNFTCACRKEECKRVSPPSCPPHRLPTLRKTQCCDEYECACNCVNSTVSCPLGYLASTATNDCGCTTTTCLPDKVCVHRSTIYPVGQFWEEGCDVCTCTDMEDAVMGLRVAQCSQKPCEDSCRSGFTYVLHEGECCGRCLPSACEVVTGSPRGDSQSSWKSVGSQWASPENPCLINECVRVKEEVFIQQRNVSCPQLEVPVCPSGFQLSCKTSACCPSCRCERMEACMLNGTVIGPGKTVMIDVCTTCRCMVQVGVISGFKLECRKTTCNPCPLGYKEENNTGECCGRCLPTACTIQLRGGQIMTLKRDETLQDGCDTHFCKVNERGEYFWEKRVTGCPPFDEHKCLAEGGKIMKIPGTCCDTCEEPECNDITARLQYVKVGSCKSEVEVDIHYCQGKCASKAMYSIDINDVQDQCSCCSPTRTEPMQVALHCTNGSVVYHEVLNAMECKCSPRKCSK
(§2) Plates were then incubated at 37° C. for 2 hours. Each plate was then washed 3 times and 100 μL of anti-PEG antibody at 1 μg/mL in 1% BSA/dPBS was added to each well and incubated for 1 hour at room temperature. […] To stop the reaction, 100 μL of 2 N H₂SO₄ was added to each well and the plate was then read at 450 nm for absorbance and the mean absorbance under each set of conditions was recorded.
(In general: ELISA stands for enzyme-linked immunosorbent assay.)

The target of series [2] is T1, von Willebrand factor (VWF). The series can be described thus: ELISA; no OD increase up to 10 uM BT200 after pre-incubation with BT101 at 1:1; dPBS, 37 C. The procedure: as §1, §2

B1: BT200 (ssRNA)
RNA: GCCAGGGACCUAAGACACAUGUCCCUGGC
modifications: all residues 2'-OMe; 5' PEG40K-NH; 3' idT (final t of SEQ 6)
B1 showed a 50% effective concentration (EC50) in series [1] of 331 nM.

B2: BT200/BT101 duplex (dsRNA)
RNA 1: GCCAGGGACCUAAGACACAUGUCCCUGGC
RNA 2: ACAUGUGUCUUAGGUCCCUGGCT
modifications: all residues 2'-OMe in both strands; BT200 5' PEG40K-NH; 3' idT on both strands
With B2, in series [2], the binding result is listed as “no binding”.
